The numbers were not newly measured in article PMC9406010, which cites them from elsewhere.

pKd: −log10 of the molar value.

The target of series [1] is CCRL2 (Homo sapiens) (UniProt O00421).
The target in series [2] is GPR1 (Homo sapiens) (UniProt P46091).
In series [3] the target is CMKLR1 (Homo sapiens) (UniProt Q99788).
Sequence of CMKLR1 (Homo sapiens) (Q99788 whole entry): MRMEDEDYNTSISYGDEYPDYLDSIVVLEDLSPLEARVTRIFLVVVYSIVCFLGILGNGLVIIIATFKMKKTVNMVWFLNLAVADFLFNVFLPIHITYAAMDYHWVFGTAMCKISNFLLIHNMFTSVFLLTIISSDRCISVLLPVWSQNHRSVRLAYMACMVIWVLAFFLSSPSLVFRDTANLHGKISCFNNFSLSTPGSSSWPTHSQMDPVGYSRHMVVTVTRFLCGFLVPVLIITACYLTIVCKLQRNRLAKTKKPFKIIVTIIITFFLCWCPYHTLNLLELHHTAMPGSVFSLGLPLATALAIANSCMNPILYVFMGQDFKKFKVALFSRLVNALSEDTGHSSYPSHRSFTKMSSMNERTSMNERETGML

Sequence of Chemerin (Q99969 21-157): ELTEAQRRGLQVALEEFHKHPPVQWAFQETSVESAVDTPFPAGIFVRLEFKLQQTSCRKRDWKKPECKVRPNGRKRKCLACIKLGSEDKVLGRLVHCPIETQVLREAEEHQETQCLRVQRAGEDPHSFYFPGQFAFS
Sequence of CCRL2 (Homo sapiens) (O00421 whole entry): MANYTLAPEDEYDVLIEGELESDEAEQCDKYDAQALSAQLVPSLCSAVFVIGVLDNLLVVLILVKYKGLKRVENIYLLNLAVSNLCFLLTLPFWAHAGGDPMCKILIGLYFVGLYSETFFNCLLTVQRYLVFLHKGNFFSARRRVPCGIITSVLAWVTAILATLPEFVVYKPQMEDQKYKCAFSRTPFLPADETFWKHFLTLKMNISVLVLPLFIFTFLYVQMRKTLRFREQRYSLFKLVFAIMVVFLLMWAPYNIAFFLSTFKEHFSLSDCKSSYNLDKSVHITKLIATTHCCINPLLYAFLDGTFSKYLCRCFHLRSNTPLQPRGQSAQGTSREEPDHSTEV
Sequence of GPR1 (Homo sapiens) (P46091 whole entry): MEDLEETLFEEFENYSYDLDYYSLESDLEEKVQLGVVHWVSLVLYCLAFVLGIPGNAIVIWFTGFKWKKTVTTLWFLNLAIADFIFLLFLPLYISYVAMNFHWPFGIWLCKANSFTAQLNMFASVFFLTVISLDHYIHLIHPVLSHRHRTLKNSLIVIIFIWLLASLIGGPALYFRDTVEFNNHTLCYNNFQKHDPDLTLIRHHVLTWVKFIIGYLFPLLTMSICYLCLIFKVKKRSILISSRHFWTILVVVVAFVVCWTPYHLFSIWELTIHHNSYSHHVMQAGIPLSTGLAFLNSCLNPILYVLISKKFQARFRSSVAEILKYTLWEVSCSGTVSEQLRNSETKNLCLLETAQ

One may read the pKd as the Kd on a negative log10 scale, so that one unit is a factor of ten. On to Chemerin (from UniProt Q99969), for which the figures for the pKd in series [1], in series [2] and in series [3] were 8.63, 9.68 and 9.06, respectively.
